Reference: PMC4824100

T1: FKBP25 (FKBP3) wild type (Homo sapiens, UniProt Q00688 1-224)
T1 sequence: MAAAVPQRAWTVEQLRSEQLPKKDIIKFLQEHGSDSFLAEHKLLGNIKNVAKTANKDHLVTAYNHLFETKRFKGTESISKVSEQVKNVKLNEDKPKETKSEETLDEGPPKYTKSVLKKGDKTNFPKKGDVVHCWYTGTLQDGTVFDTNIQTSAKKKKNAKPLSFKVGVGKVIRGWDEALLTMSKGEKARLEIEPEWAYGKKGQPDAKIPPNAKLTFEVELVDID

B1: DNA-2 (dT-EDTA at position 27) (dsDNA)
DNA 1: AGGGTCTCCATTTTGAAGCATGC
DNA 2: GCATGCTTCAAAATGGAGACCCT
modifications: dT-EDTA at residue 27 (T4 of strand 2; numbering 24-46 on antisense)
B2: DNAYY1 23-bp (dsDNA)
DNA 1: AGGGTCTCCATTTTGAAGCATGC
DNA 2: GCATGCTTCAAAATGGAGACCCT
B3: DNA-1 (dT-EDTA at position 5) (dsDNA)
DNA 1: AGGGTCTCCATTTTGAAGCATGC
DNA 2: GCATGCTTCAAAATGGAGACCCT
modifications: dT-EDTA at T5 of strand 1 (Mn2+ or Ca2+ chelated)

Key:
FKBP25 (FKBP3) wild type = biological target: T1, FKBP25 (FKBP3) wild type; test: NMR PRE
YY1-DBD = YY1-DBD (UniProt P25490 286-414); test: ITC
Sequence of YY1-DBD (P25490 286-414): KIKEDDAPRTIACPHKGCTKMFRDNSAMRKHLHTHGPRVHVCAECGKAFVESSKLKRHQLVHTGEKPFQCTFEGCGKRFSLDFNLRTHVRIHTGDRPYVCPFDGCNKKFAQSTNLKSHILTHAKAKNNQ

Row | Binder | binding result (FKBP25 (FKBP3) wild type) | Kd (YY1-DBD)
1 | B1 | binds | –
2 | B2 | – | 390 ± 600 nM
3 | B3 | binds | –
